# Laboratory results as given in the MegaScale stability set (Tsuboyama et al. 2023).
# B1: r11_951_TrROS_Hall (parent)
# chain: KKKYVIKVYFEDTGKEVEIEAESKEEALEAAKRLAEELGLKIKKVEIYP
# Variants of: B1
# Experiment: folding stability dG (cDNA display proteolysis); higher = more stable
# Settings: PBS, room temperature
row,Variant,folding stability dG
1,KKKYVIKVYKEDTGKEVEIEAESKEEALEAAKRLAEELGLKIKKVEIYP [F10K],1.65 kcal/mol
2,KKKYVIKVYFEDEGKEVEIEAESKEEALEAAKRLAEELGLKIKKVEIYP [T13E],4.4 kcal/mol
3,KKKYVIKVYFEDQGKEVEIEAESKEEALEAAKRLAEELGLKIKKVEIYP [T13Q],4.32 kcal/mol
4,KKKYVIKVYFEDGGKEVEIEAESKEEALEAAKRLAEELGLKIKKVEIYP [T13G],4.52 kcal/mol
5,KKKYVIKVYFEDIGKEVEIEAESKEEALEAAKRLAEELGLKIKKVEIYP [T13I],4.41 kcal/mol
6,KKKYVIKVYFEDTGKEVEIEAESKEEALEAAKALAEELGLKIKKVEIYP [R33A],4.04 kcal/mol
7,KKKYVIKVYFEDTGKQVEIEAESKEEALEAAKRLAEELGLKIKKVEIYP [E16Q],4.2 kcal/mol
8,KKKYVIKVYFEDTGKAVEIEAESKEEALEAAKRLAEELGLKIKKVEIYP [E16A],4.49 kcal/mol
9,KKKYVIKVYFEDTGKSVEIEAESKEEALEAAKRLAEELGLKIKKVEIYP [E16S],4.38 kcal/mol
10,KKKYVIKVYFEDTGKKVEIEAESKEEALEAAKRLAEELGLKIKKVEIYP [E16K],4.23 kcal/mol
11,KKKYVIKVYFEDTGKVVEIEAESKEEALEAAKRLAEELGLKIKKVEIYP [E16V],4.16 kcal/mol
12,KKKYVIKVYFEDTGKEVEIEAESKEEAIEAAKRLAEELGLKIKKVEIYP [L28I],4.42 kcal/mol
13,KKKYVIKVYFEDTGKEVEIEAESKEEAVEAAKRLAEELGLKIKKVEIYP [L28V],4.51 kcal/mol
14,KKKYVIKVYFEDTGKEVEIEAESKEEATEAAKRLAEELGLKIKKVEIYP [L28T],4.16 kcal/mol
15,KKKYVIKVYFEDTGKEVEIEAESKEEACEAAKRLAEELGLKIKKVEIYP [L28C],4.12 kcal/mol
16,KKKYVIKVYFEDTGKEVEIEAESKEEALEEAKRLAEELGLKIKKVEIYP [A30E],4.31 kcal/mol
17,KKKYVIKVYFEDTGKEVEIEAESKEEALEKAKRLAEELGLKIKKVEIYP [A30K],4.33 kcal/mol
18,KKKYVIKVYFEDTGKEVEIEAESKEEALEYAKRLAEELGLKIKKVEIYP [A30Y],4.89 kcal/mol
19,KKKYVIKVYFEDTGKEVEIEAEGKEEALEAAKRLAEELGLKIKKVEIYP [S23G],4.06 kcal/mol
20,KKKYVIKVYFETTGKEVEIEAESKEEALEAAKRLAEELGLKIKKVEIYP [D12T],4.5 kcal/mol
21,KKKYVIKVYFEDTGKEVEIEAESKEEALAAAKRLAEELGLKIKKVEIYP [E29A],4.75 kcal/mol
22,KKKYVIKVYFEDTGKEVEIEKESKEEALEAAKRLAEELGLKIKKVEIYP [A21K],4.29 kcal/mol
23,KKKYVIKVYFEDTGKEVEIEYESKEEALEAAKRLAEELGLKIKKVEIYP [A21Y],4.18 kcal/mol
24,KKKYVIKVYFEDTGKEVEIEAESKEEALEAAKRLAEELELKIKKVEIYP [G39E],4.18 kcal/mol
25,KKKYVIKVYFEDTGKEVEIEAESKEEALEAAKRLAEELKLKIKKVEIYP [G39K],4.53 kcal/mol
26,KKKYVIKVYFEDTGKEVEIEAESKEEALEAAKRLAEELTLKIKKVEIYP [G39T],4 kcal/mol
27,KKKYVIKVYFEDTGKEVEIEAESKEEALEAAKRLAEELWLKIKKVEIYP [G39W],3.5 kcal/mol

row,Variant,folding stability dG
1,KKKYVIKVYFEDTGKEVEIEAESKEEALEAAKRLAEELILKIKKVEIYP [G39I],3.67 kcal/mol
2,KKKYVIKVYFEDTGKEVEIEAESKEEALEAAKRLAFELGLKIKKVEIYP [E36F],4.76 kcal/mol
3,KKKYVIKVYFEDTGKEVEIEAESKEEALEAEKRLAEELGLKIKKVEIYP [A31E],2.11 kcal/mol
4,KKKYVIKVYFEDTGKEVEIEAESKEEALEALKRLAEELGLKIKKVEIYP [A31L],4.21 kcal/mol
5,KKKYVIKVYFEDTGKEVEIEAESKEEALEAQKRLAEELGLKIKKVEIYP [A31Q],2.81 kcal/mol
6,KKKYVIKVYFEDTGKEVEIEAESKEEALEAKKRLAEELGLKIKKVEIYP [A31K],2.42 kcal/mol
7,KKKYVIKVYFTDTGKEVEIEAESKEEALEAAKRLAEELGLKIKKVEIYP [E11T],4.48 kcal/mol
8,KKKYVIKVYFPDTGKEVEIEAESKEEALEAAKRLAEELGLKIKKVEIYP [E11P],3.62 kcal/mol
9,KKKYVIKVYFIDTGKEVEIEAESKEEALEAAKRLAEELGLKIKKVEIYP [E11I],4.86 kcal/mol
10,KKKYVIKVYFEDTGKEVEIEAESKEEALEAAKRLAEELGLRIKKVEIYP [K41R],4.62 kcal/mol
11,KKKYVIKVYFEDTGKEVEIEAESKEEALEAAKRLEEELGLKIKKVEIYP [A35E],4.05 kcal/mol
12,KKKYVIKVYFEDTGKEVEIEAESKEEALEAAKRLIEELGLKIKKVEIYP [A35I],3.99 kcal/mol
13,KKKYVIKVYFEDTGKEVEYEAESKEEALEAAKRLAEELGLKIKKVEIYP [I19Y],4.49 kcal/mol
14,KKKYVIKVYFEDTGKEVEHEAESKEEALEAAKRLAEELGLKIKKVEIYP [I19H],3.61 kcal/mol
15,KKKYVIKVYFEDTGKEVEREAESKEEALEAAKRLAEELGLKIKKVEIYP [I19R],3.57 kcal/mol
16,KKKYVIKVYFEDTGKEVEIEAESKEEALEAAKRLAEELGLKIKKVCIYP [E46C],4.15 kcal/mol
17,KKKYVIKVYFEDTGKEVEIEAESKEEALEAAKRLAEVLGLKIKKVEIYP [E37V],4.6 kcal/mol
18,KKKYVIKVYFEDTGKEVEIEAESKEEALEAAKRLAESLGLKIKKVEIYP [E37S],4.71 kcal/mol
19,KKKYVIKVYFEDTGKEVEIEAESKEEALEAAKRLAEYLGLKIKKVEIYP [E37Y],4.82 kcal/mol
20,KKKYVIKVYFEDTGKEVEIEAESKEEALEAAKRLAEEFGLKIKKVEIYP [L38F],4.42 kcal/mol
21,KKKYVIKVYFEDTGKEVEIEAESKEEALEAAWRLAEELGLKIKKVEIYP [K32W],4.78 kcal/mol
22,KKKYVIKVYFEDTGKEVEIEAESKEEALEAAHRLAEELGLKIKKVEIYP [K32H],4.55 kcal/mol
23,KKKYVIKVYFEDTGKEVEIEAESKEEALEAAARLAEELGLKIKKVEIYP [K32A],4.44 kcal/mol
24,KKTYVIKVYFEDTGKEVEIEAESKEEALEAAKRLAEELGLKIKKVEIYP [K3T],4.4 kcal/mol
25,KKWYVIKVYFEDTGKEVEIEAESKEEALEAAKRLAEELGLKIKKVEIYP [K3W],4.83 kcal/mol
26,KKKYVIKCYFEDTGKEVEIEAESKEEALEAAKRLAEELGLKIKKVEIYP [V8C],3.91 kcal/mol
